Assay: yeast display, Sf9 membrane polyspecificity reagent, FACS + sequencing; frameworks hold sequencing errors
In short: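 In a synthetic yeast display library (Saccharomyces cerevisiae BJ5465), nanobody expression was induced with galactose for 36–48 hours. FACS gates were set low and high (top ~1%) using anti-HA fluorescence for expression and streptavidin fluorescence for binding of the Sf9 membrane reagent. Each polyreactivity label is drawn from the gate of origin.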

Row | Sequence | polyreactivity (PSR sort gate)
1 | QVQLVESGGGLVQAGGSLRLSCAASGITFYDNVMGWYRQAPGKERELVAAITDSGGSTYYADSVKGRFTISRDNAKNTVYLQMNSLKPEDTAVYYCNADVNAHWWWYIEEYWGQGTQVTVSS | low polyreactivity
2 | QVQLVESGGGLVQAGGSLRLSCAASGRTFKLYAMGWYRQAPGKESELVAAISRSGGSTYYADSVKGRFTISRDNAKNTVYLQMKSLKPEDTAVYYCNRRQGYHGDYDYWGQGTQVTVSS | high polyreactivity
3 | QVQLVESGGGLVQAGGSLRLSCAASGRTFYLYTMGWYRQAPGKEREFVAIISRSGASTRYADSVKGRFTISRDNAKNTVYLQMNRLKPEDTAVYYCAAYVGYPYDYWGQGTQVTVSS | high polyreactivity
4 | QVQLVESGAGLVQAGGSLRLSCAASGFSFQSYTMGWSRQAPGKERELVAAISRSGGRTYYADSVKGRFTISRDNAKNTVYLQMTSLKPEDTAVYYCAVDYRTRVDYWGQGTQLTVSS | high polyreactivity
5 | QVQLVESGGGLVQAGGSLRLSCAASGFTFSYNSMGRYRQATGKERELVARISRTGGSTNYADSVKGRFTISRDNAKNTVYLQMNSLKPEDTAVYYCGTGYRYTYGSWGQGTQVTVSS | high polyreactivity
6 | QVQLVESGGGLVQAGGSLRLSCAASGSIFPGNAIGSYRQAPGKERELDARITVSGGTTYFADSVKGRFTISRDNAKNTVYLQMNSLKPEDTAVYYCAADGPSPFIQGYAKGDYWGQGTQVTVSW | low polyreactivity
7 | HVQLVESGGGLVQAGGSLRLSCAASGRIFTLYDMGWYRQAPGKERELVAAISNSAGSTYYADSVKGRFTISRDNAKNTVYLQMNSLKPEDTAVYYCAAELWSWGGARDYWGQGTQVTVSS | high polyreactivity
8 | QVQLVESGGGLVQAGGSLRLSCAASGRTFGSYAMGWYRQAPGKERELVAAISSSGGRTYYADSVKGRFTISRDNAKTTVYLQMNSLKPEDTAVYSCNARWRFLYDYWGQGTQVTVSS | high polyreactivity
9 | QVQLVESGGGLVQAGCSLRLSSAASGSIFWVNAMGWYRQAPGQERELVAAITWSAGSTYYADSVKGRFTISRDNAKYTVYVEMNSLKPEDTAVYYCAAGGAWYYWTLDYWGLGTQVTVSS | low polyreactivity
10 | QVQLVESGGGLVQAGGSLRLSCAASGLIFYVYAMGWYRQAPGKERELVADISTAGGITNYADSVKGRFTISRDNAKNTVYLQMNSLKPEDTAVYYCAATQPWYNTRTRYGSWGQGTQVTVSS | low polyreactivity
11 | QVQLVESGGGLVKAGGSLRLSCAASGITFHDYPMGWYRQAPGKERELVAAISSGGSTNYADSVKGRFTISRDNEKNTVYLQLNSLKPEDTAVYYCAAKYTDIVARLSLYYYWGQGTQVTVSS | low polyreactivity
12 | QVQLVESGGGLVQAGGSLRLSCAASGRILTTYAMGWYRQAPGKERELVAAITTIGGRTYYADSVKGRFTISRDNAKNTVYLQMNSLKPEDTAVYYCAADVYYEYDYWGQGTQVTVSS | low polyreactivity
13 | QVQLVESGGGLVQAGGSLRLSCAASGITFDSYAMGWYRQAPGKERELVATISRSGTTTYYADSVKGRFTISRDNAKNTVYLQMNSLKPEDTAVYYCNTLRAYWTYHFYGAVRDGYDYWGQGTQVTVSS | low polyreactivity
14 | QVQLVESGGGLVQAGGSLRLSCAASGRIFKWNAMGWYRQAPGKERELVAAIRWSGTSTYADSVKGRFTISRDNAKNTVYLQMNSLKPEDTAVYYCAASKRYTVGVRAFGKHDYWGQGTQVTVSS | low polyreactivity
15 | QVQLVESGGGLVQAGGRLRLSCAASGRTFYGFAMGWYRQAPGKERELVASISRDGSTNYADSVKGRFTISRDNAKNTVYLQMNSLKPEDNAVYYCAADIWYYRYPIYYYSYDYWGQGTQVTVSS | low polyreactivity
16 | QVQHVESGGGLVQAGGSLRLSCAASGSTFAFYAMGWYRQAPGKERELVAAITWRVGSTYYADSVKGRFTISRDNAKNTVYLQMNSLKPEDTAVYYCAVDIPFYDSDYCGQGTQVTVSS | low polyreactivity
17 | QVQLQESGGGMVQAGGSLRLSCAASGSIFVSVTMGWYRQAPGKERELVASIGRGSTTNHADSVKGLFTISRDNAKNIVYLLMNSLKPEDTAVYYCAALESYAKYHGYWGQGTQVTVSS | low polyreactivity
18 | QVQLVESGGGLDQAGGSLRLSCAASGSIFNYKAMGWYRQAPGKEREMVAGISYHGDSTYADSVKGPFTISRDNAKNTVYLQMKSLKPEDTAVYYCAALGPDDWLWAGDYWGQGTQVTVSS | low polyreactivity
19 | QVQLVQSGGGLVQAGGSLSLSCAASGSIFNYNAMGWYRQAPGKERELVAAITSADGRTFYADSVKGRFTISRDNAKNTVYLQMNSLKPEDTAVYYCAAERTSRYSTYEYWGQGTQVTVSS | low polyreactivity
20 | QVQLVESGGGLVQAGGSLRLSCAASGRTFGPNVMGWYRQAPGKERELVAAITYSSASTYYADSVKGRFTISRDNAKNTVYLQMNSLKPEDTAVYYCAARDRYYFGGMYYWGQGTQVTVSS | low polyreactivity
21 | QVQLVESGGGLVQAGGSLRLSCAASGSISPWYAMGWYRQAPGKERELVAAIRGNGGSTYYADSVKGRFTISRDNAKNTVYLQMNSLKPEDTAVYYCNAVYRRPIFYYWGQGTQVTVSS | low polyreactivity

Row | Sequence | polyreactivity (PSR sort gate)
22 | QVQLVESGGGLVQAGGSLRLSCAASGRTFVRYAMGWYRQATGNERELVAAISTSGGNTYYADSVKGRFSISRDNAKNTVYLQMNSLKPEDTAVYYCANDRGPNAKFDDWGQGTQVTVSS | low polyreactivity
23 | QVQLVESGGGLVQAGGSLRLSCAASGSTFVTNVMGWYRQATGKERELVAAISYSGGNTYYEDSVKGRFTISRDNAKNTVYLQMNSLKPEDTAVYYCAAKYRRWGMEYWGQGTQVTVSS | high polyreactivity
24 | QVQLVETGGGLVHAGGSLRLSCAASGFIFVVNAMGWYRQAPGKERELVAAITRNGGSTYYADSVKGRFSISRDNEKNTVYLQMNSLKPEDTAVYYCATYVRRAPSTFDVDYWGLGTQVTVSS | high polyreactivity
25 | QVQLVESGGGLVQAGGSLRLSCAASGFIFGWSGMGWYRLAPGKERELVAAITGSGVRTYYAASVKGRFTISRDNAENTVYLQMNRLKPEDTAVYYCARAGGYVGRGYKDQDGRGDYGGQGTQVTVSS | high polyreactivity
26 | QVQLVESGGGLVQAAGSLRLSCAASGFIFLVYSMGWSRQAPGKARELVAAISASGGRTYYADSVKGRFTISRDNAKNTVYLQMNSLKPEDTAVYYCARLLPTPGKPILDYWGQGTQVTVSS | low polyreactivity
27 | QVQLVESGGGLVQAGGSLRLSCAASGIIFGHYAMGWYRQAPGKERELVARITYSGTRTYYADSVKGRFTISRDNAKNTVYLQMNSLKPEDTAVYYCAAGYAYPRWVTAGNNWGQGTQVTVSS | high polyreactivity
28 | QVQLVESGGGLVQAGGSLRLSCAASGINFFGYAMGWYRQAPGKERELVAGISRSTGRTYYADSVKGRFTISRDNAKNTVYLQMNSLKQEDTSVYYCAARATRSLSRSMDYWGQGTQVTVSS | high polyreactivity
29 | QLQLVESGGGLVQAGGSLRITCAASGSTFYCYSMACYRQAPGKERALVARISSSSGRTYYADSVKGRFTISRDNAKNTVYLQMNLLKPEDTAVYYCAKYVYGKFDGVRYSYDYWGQGTQVTVSS | low polyreactivity
30 | QVQLVESGGGLVQAGGSLRLSCAASGSTFRLYAMGWYRQAAGKERELVAAISYSGGSTYYADSVKGRFTISRDTAKNTVYLQMNSLKPEETAVYYCNAVRRHGGYYDYGYWGQGTQVTVSS | high polyreactivity
31 | QVQLVESGGGLVQARGSLRLSCASSGITFWKYTMGCYRQAPGKESELVASIRIGGSTYYADSVKGRFTISRDNAKNTVYLQMNSLKPEDTAVYYCAAKGIYGLQGSPRSGYYYWGQGTQVTVSS | high polyreactivity
32 | QVQLVESGGGLVQAGGSLRVSCAASGSIFKNNPMGWYRQAPGKERELVDANRYSGGRTYYAHSVKGRFTISRDHAKNTVYIQMNSLKPEVTAVYDCAAGSIQYRPTYTGDYWGQGSQVTVSS | high polyreactivity
33 | QVQLVESGGGLVQAGGSLRLSCAASGIIFDGYTMGWYRQAPGTERELVAAITTSGTSTYYADSVKGRFTISRDNAKNTVYLQMNSLKPEDTAVYYCNAVRRGLPVVGAYDYWGQGTQVTVSS | high polyreactivity
34 | QVQLVESGGGLVQAGGSLRLSCAASGRTFVKNAMGWYIQAPGKERELVAAISYRGGSTYYADSVKGRFTISRDNAKNTVYLQMNSLKPEDTAVYYCAAQYLYYRYGGFGYWGQGTQVTVSS | high polyreactivity
35 | QVQLVEEGGGLVQAGGSLRLSCAASGRISYYYTMGWYSQAPGKERELVAAISWSGGTTYYADSVKGRFTISRDNAKYTVYLQMYSLKPEDTAVYYCAARDYYTDFHGTRRYDYWGQGTLVTVSS | low polyreactivity
36 | QVQLVESGGGLVHAGGSLRLSCAASGSTFYSNTMGWYRQAPGKERELVAAIDTSGDSTNYADSVKGRFTISRDNAKNTVYLQMNSLKPEDTAVYYCNRRVSDRAFPFNYWGQGTQVTVSS | low polyreactivity
37 | QVQLVESGGGLVQAGGSLRLSCASSGIIFYPNAMGWYRQAPAKERELVAAITSDGSTYYADSVKGRFTISRDNAMNTVYLQMNRLKPEDTAVYYCAAWEDYGYDYWGQGTQVTVSS | low polyreactivity
38 | QVQLVESGGGLVQAGGRLRLSCAASGSTFWGYTMGWYRQAPGKERELVAAISTIGGSTYYADSVKGRFTISRDNAKNTVYLQMNSLKTEDTAVYYCAAYKGKHYKEGYWGQGTQVTVSS | low polyreactivity
39 | QVQLLETGGGLVQAGGSLRLSCAPSGRIFRQYVMGWSRQAPGKERELVAAISRSGGTTYYADSVKGRFTISRDNAKNTVYLQMNILKPEDTAVYYCAASFRGQIVGYWGQGTQVTLSS | high polyreactivity
40 | QVQLVESGGGLVQAGGSLRLSCAASGSIFRLYAMGWYRPAPGKERELVAAISRRGGSTNYADSVKGRFTISRDNAKNTVNLQMNSLKPEDTAVYYCNAVSKRSRYDYWGQGTQVTVSS | high polyreactivity
41 | QVQLVESGGGLVQAGGSVRLSCGASGSIFLGNSMGWYRQAPGTLRELVAAISSITGSTYYADSVKGRFSISRDIAKNTVYLQMNRLKQEETGVYYCARVPDTEGEYWGQGTQVTVSS | high polyreactivity
